Experimental data reported in the supplement of paper PMC12067230.
± gives the uncertainty stated by the source.

B1: A-7-W; numbered along this chain (parent)
chain: EASNCFAIRHFENKFAVETLICFNLFLNSQEKHY

Variants of: B1
Assay: amyloid nucleation score relative to WT ADan (yeast Sup35 reporter selection) (log enrichment difference); higher = more amyloid nucleation
Experimental: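 Deep mutational scan of the ADan peptide fused to the Sup35 nucleation domain (SupN) in S. cerevisiae [psi-pin-], covering all single amino-acid substitutions and stop truncations (truncations = sequence up to the stop). After 24 h Cu2+ induction, cells were selected on -ADE-URA plates for 7 d at 30 °C. The nucleation score is log enrichment (output/input, deep sequencing) minus that of WT ADan, as the error-weighted mean of 3 biological replicates (DiMSum).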

Row | Variant | amyloid nucleation score
1 | EASNCFWIRHFENKFAVETLICFNLFLNSQEKHY [A7W] | -0.43 ± 0.15
2 | EASNCFAIRHFENKFAVETLIEFNLFLNSQEKHY [C22E] | -2.4 ± 0.2
3 | EASNCFAIRHFENKFAVETLISFNLFLNSQEKHY [C22S] | -1.65 ± 0.1
4 | EASNCFAIRHFENKFAVETLICFNLFLNSQGKHY [E31G] | -0.564 ± 0.087
5 | EASNCFAIRHFENKFAVETLICFNLFLNSQKKHY [E31K] | -1.84 ± 0.2
6 | EASNCFAIRHFENKFAVETLICFNLFLNSQPKHY [E31P] | -0.569 ± 0.2
7 | EASNCFAIRHFENKFAVETLICFKLFLNSQEKHY [N24K] | -3.17 ± 0.28
8 | EASNCFAIRHFENKFAVETLICFQLFLNSQEKHY [N24Q] | -0.992 ± 0.2
9 | EASNCFAIRHFENKFAVETLICFDLFLNSQEKHY [N24D] | -3.51 ± 0.25
10 | EASNCFAIRHFENKFAVETLICFYLFLNSQEKHY [N24Y] | -3.1 ± 0.21
11 | EASNCFAIRHFENKFAVETLICFMLFLNSQEKHY [N24M] | -3.68 ± 0.37
12 | EASNCFAIRHFENKFAVETLICFSLFLNSQEKHY [N24S] | -0.773 ± 0.093
13 | EASNCFAIRHFENKFAVETYICFNLFLNSQEKHY [L20Y] | -2.66 ± 0.28
14 | EASNCFAIRHFENKFAVETHICFNLFLNSQEKHY [L20H] | -2.5 ± 0.26
15 | EASNCFAIRHFENKFAVETGICFNLFLNSQEKHY [L20G] | 0.273 ± 0.097
16 | EASNCFAIRHFENKFAVETWICFNLFLNSQEKHY [L20W] | -2.59 ± 0.24
17 | EASNCFAIRHFENKFAVITLICFNLFLNSQEKHY [E18I] | -3.49 ± 0.49
18 | EASNCFAIRHFENKFAVNTLICFNLFLNSQEKHY [E18N] | 0.236 ± 0.18
19 | EASNCFAIRHFENKFAVQTLICFNLFLNSQEKHY [E18Q] | -0.141 ± 0.22
20 | EASNCFAIRHFENKFAVATLICFNLFLNSQEKHY [E18A] | -0.809 ± 0.17
21 | EASNCFAIRHFENKFAVLTLICFNLFLNSQEKHY [E18L] | -2.63 ± 0.27
22 | EISNCFAIRHFENKFAVETLICFNLFLNSQEKHY [A2I] | -1.13 ± 0.23
23 | EVSNCFAIRHFENKFAVETLICFNLFLNSQEKHY [A2V] | -1.22 ± 0.19
24 | EHSNCFAIRHFENKFAVETLICFNLFLNSQEKHY [A2H] | 0.353 ± 0.26

Row | Variant | amyloid nucleation score
25 | EASNCFAIRHFENKFAVETLICFNLFLNSQEKEY [H33E] | 0.174 ± 0.16
26 | EASNCFAIRHFENKFAVETLICFNLFLNSQEKDY [H33D] | 0.264 ± 0.15
27 | EASNCFAIRHFENKFAVETLICFNLFLNSQEKSY [H33S] | -0.164 ± 0.1
28 | EASNCFAIRHFENKFAVETLICFNLFLNSQEKNY [H33N] | 0.15 ± 0.16
29 | EASNCFAIRHFENKFAVETLICQNLFLNSQEKHY [F23Q] | 0.146 ± 0.17
30 | EASNCFAIRHFINKFAVETLICFNLFLNSQEKHY [E12I] | -3.73 ± 0.52
31 | EASNCFAIRHFQNKFAVETLICFNLFLNSQEKHY [E12Q] | -0.321 ± 0.18
32 | EASNCFAIRHFTNKFAVETLICFNLFLNSQEKHY [E12T] | -0.329 ± 0.15
33 | EASNCFAIRHFANKFAVETLICFNLFLNSQEKHY [E12A] | -0.733 ± 0.12
34 | EASNCFAIRHFENKFASETLICFNLFLNSQEKHY [V17S] | 0.586 ± 0.096
35 | EASNCFAIRHFENKFAYETLICFNLFLNSQEKHY [V17Y] | -2.81 ± 0.43
36 | EASNCFAIRHFENKFAHETLICFNLFLNSQEKHY [V17H] | -1.16 ± 0.56
37 | EASNCFAIRHFENKFAQETLICFNLFLNSQEKHY [V17Q] | -1.12 ± 0.23
38 | EASNCFAIRHFENQFAVETLICFNLFLNSQEKHY [K14Q] | 0.601 ± 0.13
39 | EASNCFAIRHFENHFAVETLICFNLFLNSQEKHY [K14H] | 1.04 ± 0.14
40 | EASNCFAIRHFENNFAVETLICFNLFLNSQEKHY [K14N] | 0.701 ± 0.12
41 | EASNCFAIRHFENKFAVETLICFNLFLNSQENHY [K32N] | 0.686 ± 0.14
42 | EASNCFAIRHFENKFAVETLICFNLFLNSQEWHY [K32W] | -0.739 ± 0.13
43 | EASNCFAIRYFENKFAVETLICFNLFLNSQEKHY [H10Y] | -0.291 ± 0.15
44 | EASNCFAIRLFENKFAVETLICFNLFLNSQEKHY [H10L] | -0.281 ± 0.1
45 | EASNCFAIRKFENKFAVETLICFNLFLNSQEKHY [H10K] | 0.566 ± 0.18
46 | EADNCFAIRHFENKFAVETLICFNLFLNSQEKHY [S3D] | 0.481 ± 0.22
47 | EAKNCFAIRHFENKFAVETLICFNLFLNSQEKHY [S3K] | 0.21 ± 0.27
48 | EAGNCFAIRHFENKFAVETLICFNLFLNSQEKHY [S3G] | 0.112 ± 0.14

Row | Variant | amyloid nucleation score
49 | EASNCFAIRHFENKFAVETLICFNLFLHSQEKHY [N28H] | -1.83 ± 0.29
50 | EASNCFAIRHFENKFAVETLICFNLFLWSQEKHY [N28W] | -1.06 ± 0.16
51 | EASNCFAIRHFENKFAVETLICFNLFLSSQEKHY [N28S] | -0.365 ± 0.11
52 | EASNCFAIRHFENKFAVETLICFNLFLVSQEKHY [N28V] | -1.04 ± 0.12
53 | EASNCFAIRHFENKFAVETLICFNLFLMSQEKHY [N28M] | -0.403 ± 0.17
54 | EASNCFAIRHFENKFAVETLICFNLFLKSQEKHY [N28K] | -2.63 ± 0.29
55 | EASNCFAIRHFENKFAVETLICFNLFLISQEKHY [N28I] | -0.963 ± 0.19
56 | EASNCFAIRHYENKFAVETLICFNLFLNSQEKHY [F11Y] | 0.379 ± 0.14
57 | EASNCFAIRHVENKFAVETLICFNLFLNSQEKHY [F11V] | 0.671 ± 0.087
58 | EASNCFAIRHFENKFAVETLKCFNLFLNSQEKHY [I21K] | -0.182 ± 0.17
59 | EASNCFAIRHFENKFAVETLDCFNLFLNSQEKHY [I21D] | -3.79 ± 0.7
60 | EASNCFAIRHFENKFAVETLLCFNLFLNSQEKHY [I21L] | -0.0345 ± 0.097
61 | EASNCFAIRHFENKFAVETLFCFNLFLNSQEKHY [I21F] | 0.0204 ± 0.11
62 | EASNCFAIRHFENKFAVETLMCFNLFLNSQEKHY [I21M] | -0.308 ± 0.15
63 | QASNCFAIRHFENKFAVETLICFNLFLNSQEKHY [E1Q] | -0.0134 ± 0.25
64 | TASNCFAIRHFENKFAVETLICFNLFLNSQEKHY [E1T] | -1.09 ± 0.24
65 | KASNCFAIRHFENKFAVETLICFNLFLNSQEKHY [E1K] | -1.2 ± 0.24
66 | SASNCFAIRHFENKFAVETLICFNLFLNSQEKHY [E1S] | -0.005 ± 0.23
67 | EASNCFAIRHFENKFAVETLICFNYFLNSQEKHY [L25Y] | 0.539 ± 0.16
68 | EASNCFAIRHFENKFAVETLICFNWFLNSQEKHY [L25W] | -2.87 ± 0.22
69 | EASNCFAIRHFENKFAVETLICFNGFLNSQEKHY [L25G] | -1.88 ± 0.14
70 | EASNCFAIRHFENKFAVETLICFNFFLNSQEKHY [L25F] | 0.0915 ± 0.14
71 | EASNCFAIRHFENKFAVETLICFNKFLNSQEKHY [L25K] | -2.69 ± 0.35
72 | EASNCFAIRHFENKFAVETLICFNVFLNSQEKHY [L25V] | -0.125 ± 0.1
